Assay results taken from US9345662B2, “Degradable hydrogel compositions and methods” (RUTGERS, THE STATE UNIVERSITY OF NEW JERSEY, priority 2008, dated 2016).

Assay: In vitro release (cumulative cleavage) from PEG-Glu-Lys conjugates in PBS (fluorescamine assay)
Format: physicochemical
Protocol: PEG-Glu(NH2)-(α)Lys(Z)OMe conjugate (15 mg) was dissolved in PBS (15 ml) and incubated at 37° C. Aliquots (50 μL) were taken at regular time intervals and the sample aliquots were dried using a CentriVap (Labconco Corporation, Kansas City, Mo.). The cumulative cleavage (%) of Lys(Z)OMe from PEG-Glu(NH2)-(α)Lys(Z)OMe conjugate was measured using fluorescamine assay^24.
PEG-Glu(NH2)-(ε)Lys(Z)OMe conjugates (15 mg) was dissolved in PBS (15 ml) and incubated at […] Aliquots (50 μL) were taken at regular time intervals and the sample aliquots were dried using a CentriVap (Labconco Corporation, Kansas City, Mo.). The cumulative cleavage (%) of Z-LysOMe from PEG-Glu(NH2)-(ε)Lys(Z)OMe conjugate was measured using fluorescamine assay^24.

## PEG-Glu(NH2)-(ε)Lys(Z)OMe [PEG-Glu(NH2)-(ε)Lys(Z)OMe conjugate]
7° C., at the time under E15
  Z-LysOMe released from conjugate: 99%
7° C., extent under E14
  time of Z-LysOMe release from conjugate: ~29 h

## PEG-Glu(NH2)-(α)Lys(Z)OMe [PEG-Glu(NH2)-(α)Lys(Z)OMe conjugate]
37° C., at the time under E13
  release (cumulative cleavage) of Lys(Z)OMe from conjugate: ~99%
37° C., extent under E12
  time of Lys(Z)OMe release from conjugate: 490 h
